From IntAct's records for PubMed 39009827

B1: Cell division control protein 45 homolog (Homo sapiens), O75419 (parent)
chain: MFVSDFRKEFYEVVQSQRVLLFVASDVDALCACKILQALFQCDHVQYTLVPVSGWQELETAFLEHKEQFHYFILINCGANVDLLDILQPDEDTIFFVCDTHRPVNVVNVYNDTQIKLLIKQDDDLEVPAYEDIFRDEEEDEEHSGNDSDGSEPSEKRTRLEEEIVEQTMRRRQRREWEARRRDILFDYEQYEYHGTSSAMVMFELAWMLSKDLNDMLWWAIVGLTDQWVQDKITQMKYVTDVGVLQRHVSRHNHRNEDEENTLSVDCTRISFEYDLRLVLYQHWSLHDSLCNTSYTAARFKLWSVHGQKRLQEFLADMGLPLKQVKQKFQAMDISLKENLREMIEESANKFGMKDMRVQTFSIHFGFKHKFLASDVVFATMSLMESPEKDGSGTDHFIQALDSLSRSNLDKLYHGLELAKKQLRATQQTIASCLCTNLVISQGPFLYCSLMEGTPDVMLFSRPASLSLLSKHLLKSFVCSTKNRRCKLLPLVMAAPLSMEHGTVTVVGIPPETDSSDRKNFFGRAFEKAAESTSSRMLHNHFDLSVIELKAEDRSKFLDALISLLS
B2: Zinc finger protein 526 (Homo sapiens), Q8TF50 (parent)
chain: MAEVVAEVAEMPTQMSPGAVEMSTPMSAEMMEMSTEVTEMTPGEALASSLFFQHHQFMCSECGSLYNTLEEVLSHQEQHMLAVSEEEALTTQNVGLEPELVPGAEGPFQCGECSQLILSPGELLAHQDAHLRESANQIQYQCWDCQELFPSPELWVAHRKAQHLSATVAEPPVPPPLPPPTPLPPPSPPSEVKMEPYECPECSTLCATPEEFLEHQGTHFDSLEKEERNGLEEEEEDDEEDEEDDEEMEDEEAMAEVGDDAVGGDESTAGWAQGCGDCPQHQPSAGARRQHRRTAHSPASATHPFHCSQCQRSFSSANRLQAHGRAHVGGTHECTTCSKVFKKAASLEQHLRLHRGEARYLCVDCGRGFGTELTLVAHRRAHTANPLHRCRCGKTFSNMTKFLYHRRTHAGKSGAPPTGATAPPAPAEPTPPPPPPAPPAQLPCPQCSKSFASASRLSRHRRAVHGPPERRHRCGVCGKGFKKLIHVRNHLRTHTGERPFQCHSCGKTFASLANLSRHQLTHTGARPYQCLDCGKRFTQSSNLQQHRRLHLRPVAFARAPRLPITGLYNKSPYYCGTCGRWFRAMAGLRLHQRVHARARTLTLQPPRSPSPAPPPPPEPQQTIMCTELGETIAIIETSQPLALEDTLQLCQAALGASEAGGLLQLDTAFV
B3: Keratin, type II cytoskeletal 1 (Homo sapiens), P04264 (parent)
chain: MSRQFSSRSGYRSGGGFSSGSAGIINYQRRTTSSSTRRSGGGGGRFSSCGGGGGSFGAGGGFGSRSLVNLGGSKSISISVARGGGRGSGFGGGYGGGGFGGGGFGGGGFGGGGIGGGGFGGFGSGGGGFGGGGFGGGGYGGGYGPVCPPGGIQEVTINQSLLQPLNVEIDPEIQKVKSREREQIKSLNNQFASFIDKVRFLEQQNQVLQTKWELLQQVDTSTRTHNLEPYFESFINNLRRRVDQLKSDQSRLDSELKNMQDMVEDYRNKYEDEINKRTNAENEFVTIKKDVDGAYMTKVDLQAKLDNLQQEIDFLTALYQAELSQMQTQISETNVILSMDNNRSLDLDSIIAEVKAQYEDIAQKSKAEAESLYQSKYEELQITAGRHGDSVRNSKIEISELNRVIQRLRSEIDNVKKQISNLQQSISDAEQRGENALKDAKNKLNDLEDALQQAKEDLARLLRDYQELMNTKLALDLEIATYRTLLEGEESRMSGECAPNVSVSVSTSHTTISGGGSRGGGGGGYGSGGSSYGSGGGSYGSGGGGGGGRGSYGSGGSSYGSGGGSYGSGGGGGGHGSYGSGSSSGGYRGGSGGGGGGSSGGRGSGGGSSGGSIGGRGSSSGGVKSSGGSSSVKFVSTTYSGVTR
B4: Mitotic checkpoint serine/threonine-protein kinase BUB1 (Homo sapiens), O43683 (parent)
chain: MDTPENVLQMLEAHMQSYKGNDPLGEWERYIQWVEENFPENKEYLITLLEHLMKEFLDKKKYHNDPRFISYCLKFAEYNSDLHQFFEFLYNHGIGTLSSPLYIAWAGHLEAQGELQHASAVLQRGIQNQAEPREFLQQQYRLFQTRLTETHLPAQARTSEPLHNVQVLNQMITSKSNPGNNMACISKNQGSELSGVISSACDKESNMERRVITISKSEYSVHSSLASKVDVEQVVMYCKEKLIRGESEFSFEELRAQKYNQRRKHEQWVNEDRHYMKRKEANAFEEQLLKQKMDELHKKLHQVVETSHEDLPASQERSEVNPARMGPSVGSQQELRAPCLPVTYQQTPVNMEKNPREAPPVVPPLANAISAALVSPATSQSIAPPVPLKAQTVTDSMFAVASKDAGCVNKSTHEFKPQSGAEIKEGCETHKVANTSSFHTTPNTSLGMVQATPSKVQPSPTVHTKEALGFIMNMFQAPTLPDISDDKDEWQSLDQNEDAFEAQFQKNVRSSGAWGVNKIISSLSSAFHVFEDGNKENYGLPQPKNKPTGARTFGERSVSRLPSKPKEEVPHAEEFLDDSTVWGIRCNKTLAPSPKSPGDFTSAAQLASTPFHKLPVESVHILEDKENVVAKQCTQATLDSCEENMVVPSRDGKFSPIQEKSPKQALSSHMYSASLLRLSQPAAGGVLTCEAELGVEACRLTDTDAAIAEDPPDAIAGLQAEWMQMSSLGTVDAPNFIVGNPWDDKLIFKLLSGLSKPVSSYPNTFEWQCKLPAIKPKTEFQLGSKLVYVHHLLGEGAFAQVYEATQGDLNDAKNKQKFVLKVQKPANPWEFYIGTQLMERLKPSMQHMFMKFYSAHLFQNGSVLVGELYSYGTLLNAINLYKNTPEKVMPQGLVISFAMRMLYMIEQVHDCEIIHGDIKPDNFILGNGFLEQDDEDDLSAGLALIDLGQSIDMKLFPKGTIFTAKCETSGFQCVEMLSNKPWNYQIDYFGVAATVYCMLFGTYMKVKNEGGECKPEGLFRRLPHLDMWNEFFHVMLNIPDCHHLPSLDLLRQKLKKVFQQHYTNKIRALRNRLIVLLLECKRSRK

Variants of: B1
Details: with ima3_human KPNA4, O00629
Target sequence in this assay (O00629 whole entry): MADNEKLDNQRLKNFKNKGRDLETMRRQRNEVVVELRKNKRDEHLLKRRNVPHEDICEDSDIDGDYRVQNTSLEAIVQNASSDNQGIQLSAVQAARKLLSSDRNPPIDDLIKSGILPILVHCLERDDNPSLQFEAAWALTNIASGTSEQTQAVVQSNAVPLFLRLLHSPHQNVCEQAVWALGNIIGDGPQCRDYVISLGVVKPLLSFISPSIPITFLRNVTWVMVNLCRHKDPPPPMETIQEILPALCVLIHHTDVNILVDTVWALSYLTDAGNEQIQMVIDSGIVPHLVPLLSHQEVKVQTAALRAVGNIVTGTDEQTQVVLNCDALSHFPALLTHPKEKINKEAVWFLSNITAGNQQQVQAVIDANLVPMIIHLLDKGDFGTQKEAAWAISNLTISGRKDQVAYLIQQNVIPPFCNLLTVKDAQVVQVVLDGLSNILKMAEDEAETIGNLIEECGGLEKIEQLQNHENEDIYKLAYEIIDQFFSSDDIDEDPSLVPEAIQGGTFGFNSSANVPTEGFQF
For MFVSDFRKEFYEVVQSQRVLLFVASDVDALCACKILQALFQCDHVQYTLVPVSGWQELETAFLEHKEQFHYFILINCGANVDLLDILQPDEDTIFFVCDTHRPVNVVNVYNDTQIKLLIKQDDDLEVPAYEDIFRDEEEDEEHSGNDSDGSEPSEKCTRLEEEIVEQTMRRRQRREWEARRRDILFDYEQYEYHGTSSAMVMFELAWMLSKDLNDMLWWAIVGLTDQWVQDKITQMKYVTDVGVLQRHVSRHNHRNEDEENTLSVDCTRISFEYDLRLVLYQHWSLHDSLCNTSYTAARFKLWSVHGQKRLQEFLADMGLPLKQVKQKFQAMDISLKENLREMIEESANKFGMKDMRVQTFSIHFGFKHKFLASDVVFATMSLMESPEKDGSGTDHFIQALDSLSRSNLDKLYHGLELAKKQLRATQQTIASCLCTNLVISQGPFLYCSLMEGTPDVMLFSRPASLSLLSKHLLKSFVCSTKNRRCKLLPLVMAAPLSMEHGTVTVVGIPPETDSSDRKNFFGRAFEKAAESTSSRMLHNHFDLSVIELKAEDRSKFLDALISLLS [R157C], the “effect of a mutation on the interaction” value was “disrupting interaction strength”.

Variants of: B1
Details: with ima8_human KPNA7, A9QM74
ima8_human KPNA7, A9QM74, sequence (A9QM74 whole entry): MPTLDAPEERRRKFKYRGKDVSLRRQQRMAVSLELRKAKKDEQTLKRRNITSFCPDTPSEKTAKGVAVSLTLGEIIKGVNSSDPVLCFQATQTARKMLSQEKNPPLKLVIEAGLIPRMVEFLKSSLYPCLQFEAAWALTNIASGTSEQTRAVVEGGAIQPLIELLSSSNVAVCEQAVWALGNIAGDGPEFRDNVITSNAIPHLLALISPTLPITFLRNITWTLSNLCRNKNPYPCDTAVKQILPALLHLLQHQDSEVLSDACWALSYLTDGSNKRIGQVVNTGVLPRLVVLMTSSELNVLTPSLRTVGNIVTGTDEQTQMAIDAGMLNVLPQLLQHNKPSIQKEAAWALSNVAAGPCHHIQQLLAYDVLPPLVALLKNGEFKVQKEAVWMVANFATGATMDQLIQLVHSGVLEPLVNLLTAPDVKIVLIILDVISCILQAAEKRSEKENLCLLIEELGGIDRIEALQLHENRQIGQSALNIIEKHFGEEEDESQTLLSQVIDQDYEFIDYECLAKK
With MFVSDFRKEFYEVVQSQRVLLFVASDVDALCACKILQALFQCDHVQYTLVPVSGWQELETAFLEHKEQFHYFILINCGANVDLLDILQPDEDTIFFVCDTHRPVNVVNVYNDTQIKLLIKQDDDLEVPAYEDIFRDEEEDEEHSGNDSDGSEPSEKCTRLEEEIVEQTMRRRQRREWEARRRDILFDYEQYEYHGTSSAMVMFELAWMLSKDLNDMLWWAIVGLTDQWVQDKITQMKYVTDVGVLQRHVSRHNHRNEDEENTLSVDCTRISFEYDLRLVLYQHWSLHDSLCNTSYTAARFKLWSVHGQKRLQEFLADMGLPLKQVKQKFQAMDISLKENLREMIEESANKFGMKDMRVQTFSIHFGFKHKFLASDVVFATMSLMESPEKDGSGTDHFIQALDSLSRSNLDKLYHGLELAKKQLRATQQTIASCLCTNLVISQGPFLYCSLMEGTPDVMLFSRPASLSLLSKHLLKSFVCSTKNRRCKLLPLVMAAPLSMEHGTVTVVGIPPETDSSDRKNFFGRAFEKAAESTSSRMLHNHFDLSVIELKAEDRSKFLDALISLLS [R157C] the “effect of a mutation on the interaction” value was “disrupting interaction strength”.

Variants of: B1
Details: with ima3_human KPNA4, O00629
Remark: another data set of the same source
Target sequence in this assay (O00629 whole entry): as the sequence (O00629 whole entry) above
MFVSDFRKEFYEVVQSQRVLLFVASDVDALCACKILQALFQCDHVQYTLVPVSGWQELETAFLEHKEQFHYFILINCGANVDLLDILQPDEDTIFFVCDTHRPVNVVNVYNDTQIKLLIKQDDDLEVPAYEDIFRDEEEDEEHSGNDSDGSEPSEKCTRLEEEIVEQTMRRRQRREWEARRRDILFDYEQYEYHGTSSAMVMFELAWMLSKDLNDMLWWAIVGLTDQWVQDKITQMKYVTDVGVLQRHVSRHNHRNEDEENTLSVDCTRISFEYDLRLVLYQHWSLHDSLCNTSYTAARFKLWSVHGQKRLQEFLADMGLPLKQVKQKFQAMDISLKENLREMIEESANKFGMKDMRVQTFSIHFGFKHKFLASDVVFATMSLMESPEKDGSGTDHFIQALDSLSRSNLDKLYHGLELAKKQLRATQQTIASCLCTNLVISQGPFLYCSLMEGTPDVMLFSRPASLSLLSKHLLKSFVCSTKNRRCKLLPLVMAAPLSMEHGTVTVVGIPPETDSSDRKNFFGRAFEKAAESTSSRMLHNHFDLSVIELKAEDRSKFLDALISLLS [R157C] was tested, and the “effect of a mutation on the interaction” value was “decreasing interaction strength”.

Variants of: B2
Details: with ima3_human KPNA4, O00629
Target sequence in this assay (O00629 whole entry): as the sequence (O00629 whole entry) above
For K160T, the “effect of a mutation on the interaction” value was “disrupting interaction strength”.

Variants of: B2
Details: with ima3_human KPNA4, O00629
Remark: another data set of the same source
Target sequence in this assay (O00629 whole entry): as the sequence (O00629 whole entry) above
With K160T the “effect of a mutation on the interaction” value was “decreasing interaction strength”.

Variants of: B3
Details: with mlp3a_human MAP1LC3A
With L214P the “effect of a mutation on the interaction” value was “disrupting interaction strength”.

Variants of: B4
Details: with mlp3b_human MAP1LC3B
For S492F, the “effect of a mutation on the interaction” value was “increasing interaction strength”.

Variants of: B4
Details: with gbrl1_human GABARAPL1, Q9H0R8
gbrl1_human GABARAPL1, Q9H0R8, sequence (Q9H0R8 whole entry, looked up): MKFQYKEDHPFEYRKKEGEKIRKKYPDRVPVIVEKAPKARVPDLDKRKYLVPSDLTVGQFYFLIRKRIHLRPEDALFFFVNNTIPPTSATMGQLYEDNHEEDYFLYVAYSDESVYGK
For S492F, the “effect of a mutation on the interaction” value was “increasing interaction strength”.
